This is an account of results in CN108948199A (BOAOXIN BIOTECHNOLOGY NANJING CO LTD, dated 2018).

In experiment [1] the target is T1, 重组人CSF1R带his标签的蛋白 (human, UniProt P07333 20-512).
T1 construct: Bought protein used as coating antigen for hybridoma screening; also called 人CSF1R-his; CSF1R-his蛋白抗原; not shown: his tag
Nature of the experiment: ELISA screen of hybridoma supernatant on coated human CSF1R-his. In general terms: In an ELISA, binding on a coated surface is turned into a signal by an enzyme label.

The target of experiment [2] is T2, 生物素标记人CSF1R Fc蛋白 (human, UniProt P07333 20-512, biotin-labelled (site not stated)).
T2 construct: range 20-512; also called CSF1R Fc biotin; 人CSF1R抗原; not shown: human IgG1 Fc tag at the C-terminus
T2 sequence (P07333 20-512 limits assumed): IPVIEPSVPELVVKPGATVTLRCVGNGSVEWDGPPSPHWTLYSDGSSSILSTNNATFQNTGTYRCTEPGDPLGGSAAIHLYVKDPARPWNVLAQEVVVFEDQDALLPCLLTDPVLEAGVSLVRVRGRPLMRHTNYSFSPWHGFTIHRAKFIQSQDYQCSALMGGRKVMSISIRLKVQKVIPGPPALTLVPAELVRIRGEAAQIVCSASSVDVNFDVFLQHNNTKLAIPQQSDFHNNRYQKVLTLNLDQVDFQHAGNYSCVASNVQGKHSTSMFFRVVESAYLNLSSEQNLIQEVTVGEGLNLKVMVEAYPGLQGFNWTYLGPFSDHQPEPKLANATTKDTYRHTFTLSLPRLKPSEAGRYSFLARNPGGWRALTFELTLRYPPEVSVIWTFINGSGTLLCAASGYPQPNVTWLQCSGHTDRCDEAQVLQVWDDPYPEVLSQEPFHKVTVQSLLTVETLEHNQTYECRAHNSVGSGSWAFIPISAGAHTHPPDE
Nature of the experiment: binding assays of Example 2 (capture ELISA with biotin-labelled human CSF1R Fc; flow cytometry on 293F cells expressing human CSF1R), summarised in Table 2.

T1 sequence (P07333 20-512 limits assumed): as above

B1: 1G6 抗人CSF-1R小鼠单克隆抗体 (antibody, V domains shown)
VH: QIQLVQSGPELKKPGETVKISCKASGYTFIIYGMNWVKQTPGRGLKWMGWINTYTGEPTYADDFKGRFAFSLETSASTASLQINNLKNEDTATYFCAREVYDGYPSHYAMDYWGQGTSVTVSS
VL: DIVMTQAAPSVPVTPGESVSISCRSSKSLLHSNGNTYLYWFLQRPGQSPQLLIYWMSNLASGVPDRFSGSGSGTAFTLRISRVEAEDVGVYYCLQHLEYPYTFGGGTKLEIK
notes: also called 1G6抗体; 本发明的抗人CSF-1R单克隆抗体
Turning to B1, the binding result in experiment [1] and in experiment [2] was “binds” throughout.
